± gives the standard deviation of the averaged measurements.
Key:
[1] = tested on: MCF7; test: percentage of EdU-negative (G0-arrested) nuclei per well, 72 h; higher = more G0 arrest; conditions: reference: sequence is the full UniProt precursor, the tested protein was the secreted form or ectodomain
[2] = tested on: hTERT-HMEC; test: as above; conditions: reference: sequence is the full UniProt precursor, the tested protein was the secreted form or ectodomain
[3] = protein concentration 0.01425 µM
[4] = protein concentration 0.1425 µM
[5] = protein concentration 0.03125 µM
[6] = protein concentration 0.3125 µM
[7] = protein concentration 0.0225 µM
[8] = protein concentration 0.02075 µM
[9] = protein concentration 0.2075 µM
[10] = protein concentration 0.0357143 µM
[11] = protein concentration 0.357143 µM
[12] = protein concentration 0.0165575 µM
[13] = protein concentration 0.165575 µM
[14] = protein concentration 0.0282857 µM
[15] = protein concentration 0.282857 µM
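Note: secreted proteins added to cultured cells, EdU pulse at the end, nuclei found by Hoechst imaging, EdU status from nuclear versus surrounding ring intensity ratio, PBS as neutral control.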

Chain of Q8IWL1 (chain, as listed by the source): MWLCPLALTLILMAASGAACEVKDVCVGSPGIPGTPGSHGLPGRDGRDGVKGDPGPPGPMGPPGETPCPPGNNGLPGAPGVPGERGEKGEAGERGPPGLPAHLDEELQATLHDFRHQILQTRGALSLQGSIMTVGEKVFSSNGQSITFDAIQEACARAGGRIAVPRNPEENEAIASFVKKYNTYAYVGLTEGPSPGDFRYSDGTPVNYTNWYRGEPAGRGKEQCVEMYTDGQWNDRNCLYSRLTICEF

Substance	percentage of EdU-negative [1, 7] [%]	percentage of EdU-negative ([1]; protein concentration 0.225 µM) [%]	percentage of EdU-negative [2, 7] [%]	percentage of EdU-negative ([2]; protein concentration 0.225 µM) [%]	also measured
MKITSTSCICPVLVCLCFVQRCYGTAHHSSIKVMRNQTKHIEGETEVHHRPKRGWVWNQFFVLEEHMGPDPQYVGKLHSNSDKGDGSVKYILTGEGAGTIFIIDDTTGDIHSTKSLDREQKTHYVLHAQAIDRRTNKPLEPESEFIIKVQDINDNAPKFTDGPYIVTVPEMSDMGTSVLQVTATDADDPTYGNSARVVYSILQGQPYFSVDPKTGVIRTALHNMDREAREHYSVVIQAKDMAGQVGGLSGSTTVNITLTDVNDNPPRFPQKHYQLYVPESAQVGSAVGKIKANDADTGSNADMTYSIINGDGMGIFSISTDKETREGILSLKKPLNYEKKKSYTLNIEGANTHLDFRFSHLGPFKDATMLKIIVGDVDEPPLFSMPSYLMEVYENAKIGTVVGTVLAQDPDSTNSLVRYFINYNVEDDRFFNIDANTGTIRTTKVLDREETPWYNITVTASEIDNPDLLSHVTVGIRVLDVNDNPPELAREYDIIVCENSKPGQVIHTISATDKDDFANGPRFNFFLDERLPVNPNFTLKDNEDNTASILTRRRRFSRTVQDVYYLPIMISDGGIPSLSSSSTLTIRVCACERDGRVRTCHAEAFLSSAGLSTGALIAILLCVLILLAIVVLFITLRRSKKEPLIISEEDVRENVVTYDDEGGGEEDTEAFDITALRNPSAAEELKYRRDIRPEVKLTPRHQTSSTLESIDVQEFIKQRLAEADLDPSVPPYDSLQTYAYEGQRSEAGSISSLDSATTQSDQDYHYLGDWGPEFKKLAELYGEIESERTT					percentage of EdU-negative [1, 3]: 26 ± 2.9%; percentage of EdU-negative [1, 4]: 37 ± 4.3%; percentage of EdU-negative [2, 3]: 5.06 ± 0.45%; percentage of EdU-negative [2, 4]: 7.93 ± 0.73%
MVGAMWKVIVSLVLLMPGPCDGLFRSLYRSVSMPPKGDSGQPLFLTPYIEAGKIQKGRELSLVGPFPGLNMKSYAGFLTVNKTYNSNLFFWFFPAQIQPEDAPVVLWLQGGPGGSSMFGLFVEHGPYVVTSNMTLRDRDFPWTTTLSMLYIDNPVGTGFSFTDDTHGYAVNEDDVARDLYSALIQFFQIFPEYKNNDFYVTGESYAGKYVPAIAHLIHSLNPVREVKINLNGIAIGDGYSDPESIIGGYAEFLYQIGLLDEKQKKYFQKQCHECIEHIRKQNWFEAFEILDKLLDGDLTSDPSYFQNVTGCSNYYNFLRCTEPEDQLYYVKFLSLPEVRQAIHVGNQTFNDGTIVEKYLREDTVQSVKPWLTEIMNNYKVLIYNGQLDIIVAAALTERSLMGMDWKGSQEYKKAEKKVWKIFKSDSEVAGYIRQAGDFHQVIIRGGGHILPYDQPLRAFDMINRFIYGKGWDPYVG [Q9H3G5]					percentage of EdU-negative ([1]; protein concentration 0.014 µM): 26.1 ± 4.2%; percentage of EdU-negative ([1]; protein concentration 0.14 µM): 29.1 ± 0.47%; percentage of EdU-negative ([2]; protein concentration 0.014 µM): 5.19 ± 0.19%; percentage of EdU-negative ([2]; protein concentration 0.14 µM): 6.64 ± 0.14%
MEMFQGLLLLLLLSMGGTWASREMLRPRCRPINATLAVEKEGCPVCITVNTTICAGYCPTMTRVLQGVLPALPQVVCNYRDVRFESIRLPGCPRGVNPVVSYAVALSCQCALCRRSTTDCGGPKDHPLTCDDPRFQASSSSKAPPPSLPSPSRLPGPSDTPILPQ					percentage of EdU-negative [1, 5]: 24.4 ± 2.5%; percentage of EdU-negative [1, 6]: 25 ± 1%; percentage of EdU-negative [2, 5]: 5.61 ± 0.69%; percentage of EdU-negative [2, 6]: 5.26 ± 0.82%
Q8IWL1	28.1 ± 0.35	26.4 ± 0.85	5.29 ± 1.1	6.43 ± 1.3	
MELQPPEASIAVVSIPRQLPGSHSEAGVQGLSAGDDSELGSHCVAQTGLELLASGDPLPSASQNAEMIETGSDCVTQAGLQLLASSDPPALASKNAEVTGTMSQDTEVDMKEVELNELEPEKQPMNAASGAAMSLAGAEKNGLVKIKVAEDEAEAAAAAKFTGLSKEELLKVAGSPGWVRTRWALLLLFWLGWLGMLAGAVVIIVRAPRCRELPAQKWWHTGALYRIGDLQAFQGHGAGNLAGLKGRLDYLSSLKVKGLVLGPIHKNQKDDVAQTDLLQIDPNFGSKEDFDSLLQSAKKKSIRVILDLTPNYRGENSWFSTQVDTVATKVKDALEFWLQAGVDGFQVRDIENLKDASSFLAEWQNITKGFSEDRLLIAGTNSSDLQQILSLLESNKDLLLTSSYLSDSGSTGEHTKSLVTQYLNATGNRWCSWSLSQARLLTSFLPAQLLRLYQLMLFTLPGTPVFSYGDEIGLDAAALPGQPMEAPVMLWDESSFPDIPGAVSANMTVKGQSEDPGSLLSLFRRLSDQRSKERSLLHGDFHAFSAGPGLFSYIRHWDQNERFLVVLNFGDVGLSAGLQASDLPASASLPAKADLLLSTQPGREEGSPLELERLKLEPHEGLLLRFPYAA					percentage of EdU-negative [1, 5]: 23.1 ± 0.58%; percentage of EdU-negative [1, 6]: 27.1 ± 0.54%; percentage of EdU-negative [2, 5]: 5.08 ± 0.89%; percentage of EdU-negative [2, 6]: 8.07 ± 1.1%
MALWRGSAYAGFLALAVGCVFLLEPELPGSALRSLWSSLCLGPAPAPPGPVSPEGRLAAAWDALIVRPVRRWRRVAVGVNACVDVVLSGVKLLQALGLSPGNGKDHSILHSRNDLEEAFIHFMGKGAAAERFFSDKETFHDIAQVASEFPGAQHYVGGNAALIGQKFAANSDLKVLLCGPVGPKLHELLDDNVFVPPESLQEVDEFHLILEYQAGEEWGQLKAPHANRFIFSHDLSNGAMNMLEVFVSSLEEFQPDLVVLSGLHMMEGQSKELQRKRLLEVVTSISDIPTGIPVHLELASMTNRELMSSIVHQQVFPAVTSLGLNEQELLFLTQSASGPHSSLSSWNGVPDVGMVSDILFWILKEHGRSKSRASDLTRIHFHTLVYHILATVDGHWANQLAAVAAGARVAGTQACATETIDTSRVSLRAPQEFMTSHSEAGSRIVLNPNKPVVEWHREGISFHFTPVLVCKDPIRTVGLGDAISAEGLFYSEVHPHY [Q9BRR6]	24.8 ± 1	24 ± 2.1	4.76 ± 0.58	5.82 ± 0.78	
MAAFPHKIIFFLVCSTLTHVAFSGIFNKRDFTRWPKPRCKMYIPLDPDYNADCPNVTAPVCASNGHTFQNECFFCVEQREFHYRIKFEKYGKCD [Q1W4C9]	26.8 ± 1.7	27.7 ± 0.31	5.06 ± 0.42	7.07 ± 0.77	
MTSKPHSDWIPYSVLDDEGRNLRQQKLDRQRALLEQKQKKKRQEPLMVQANADGRPRSRRARQSEEQAPLVESYLSSSGSTSYQVQEADSLASVQLGATRPTAPASAKRTKAAATAGGQGGAARKEKKGKHKGTSGPAALAEDKSEAQGPVQILTVGQSDHAQDAGETAAGGGERPSGQDLRATMQRKGISSSMSFDEDEEDEEENSSSSSQLNSNTRPSSATSRKSVREAASAPSPTAPEQPVDVEVQDLEEFALRPAPQGITIKCRITRDKKGMDRGMYPTYFLHLDREDGKKVFLLAGRKRKKSKTSNYLISVDPTDLSRGGDSYIGKLRSNLMGTKFTVYDNGVNPQKASSSTLESGTLRQELAAVCYETNVLGFKGPRKMSVIVPGMNMVHERVSIRPRNEHETLLARWQNKNTESIIELQNKTPVWNDDTQSYVLNFHGRVTQASVKNFQIIHGNDPDYIVMQFGRVAEDVFTMDYNYPLCALQAFAIALSSFDSKLACE					percentage of EdU-negative [1, 8]: 24.8 ± 1.5%; percentage of EdU-negative [1, 9]: 29.6 ± 0.96%; percentage of EdU-negative [2, 8]: 4.99 ± 0.76%; percentage of EdU-negative [2, 9]: 7.63 ± 0.81%
MLPPMALPSVSWMLLSCLILLCQVQGEETQKELPSPRISCPKGSKAYGSPCYALFLSPKSWMDADLACQKRPSGKLVSVLSGAEGSFVSSLVRSISNSYSYIWIGLHDPTQGSEPDGDGWEWSSTDVMNYFAWEKNPSTILNPGHCGSLSRSTGFLKWKDYNCDAKLPYVCKFKD [Q6UW15]	25.43 ± 0.028	26.8 ± 1.6	4.59 ± 0.17	5.21 ± 0.13	
MLQLWKLVLLCGVLTGTSESLLDNLGNDLSNVVDKLEPVLHEGLETVDNTLKGILEKLKVDLGVLQKSSAWQLAKQKAQEAEKLLNNVISKLLPTNTDIFGLKISNSLILDVKAEPIDDGKGLNLSFPVTANVTVAGPIIGQIINLKASLDLLTAVTIETDPQTHQPVAVLGECASDPTSISLSLLDKHSQIINKFVNSVINTLKSTVSSLLQKEICPLIRIFIHSLDVNVIQQVVDNPQHKTQLQTLI [Q96DR5]	27.4 ± 1.7	27.4 ± 1.2	4.84 ± 0.42	4.68 ± 0.1	
MLGIWTLLPLVLTSVARLSSKSVNAQVTDINSKGLELRKTVTTVETQNLEGLHHDGQFCHKPCPPGERKARDCTVNGDEPDCVPCQEGKEYTDKAHFSSKCRRCRLCDEGHGLEVEINCTRTQNTKCRCKPNFFCNSTVCEHCDPCTKCEHGIIKECTLTSNTKCKEEGSRSNLGWLCLLLLPIPLIVWVKRKEVQKTCRKHRKENQGSHESPTLNPETVAINLSDVDLSKYITTIAGVMTLSQVKGFVRKNGVNEAKIDEIKNDNVQDTAEQKVQLLRNWHQLHGKKEAYDTLIKDLKKANLCTLAEKIQTIILKDITSDSENSNFRNEIQSLV					percentage of EdU-negative [1, 10]: 23.4 ± 1.9%; percentage of EdU-negative [1, 11]: 26.6 ± 0.71%; percentage of EdU-negative [2, 10]: 5.07 ± 0.45%; percentage of EdU-negative [2, 11]: 5.88 ± 1.1%
MLRAALPALLLPLLGLAAAAVADCPSSTWIQFQDSCYIFLQEAIKVESIEDVRNQCTDHGADMISIHNEEENAFILDTLKKQWKGPDDILLGMFYDTDDASFKWFDNSNMTFDKWTDQDDDEDLVDTCAFLHIKTGEWKKGNCEVSSVEGTLCKTAIPYKRKYLSDNHILISALVIASTVILTVLGAIIWFLYKKHSDSRFTTVFSTAPQSPYNEDCVLVVGEENEYPVQFD [Q8IX05]	25.83 ± 0.12	25.38 ± 0.14	4.48 ± 0.56	5.29 ± 0.55	
MGLLSAPPCTQRITWKGLLLTASLLNFWNPPTTAQVTIEAQPTKVSEGKDVLLLVHNLPQNLTGYIWYKGQIRDLYHYITSYVVDGQIIIYGPAYSGRETIYSNASLLIQNVTQEDAGSYTLHIIMGGDENRGVTGHFTFTLYLETPKPSISSSKLNPREAMEAVSLTCDPETPDASYLWWMNGQSLPMSHRLQLSETNRTLFLLGVTKYTAGPYECEIRNPVSASRSDPFTLNLLPKLPKPYITINNLKPRENKDVLNFTCEPKSENYTYIWWLNGQSLPVSPRVKRPIENRILILPSVTRNETGPYQCEIRDQYGGIRSYPVTLNVLYGPDLPRIYPSFTYYRSGEVLYLSCSADSNPPAQYSWTINGKFQLSGQKLFIPQITTKHSGLYACSVRNSATGKESSKSMTVKVSGKRIPVSLAIGI [Q9UQ74]					percentage of EdU-negative [1, 12]: 26.7 ± 1%; percentage of EdU-negative [1, 13]: 31.5 ± 1.5%; percentage of EdU-negative [2, 12]: 4.16 ± 0.38%; percentage of EdU-negative [2, 13]: 6.44 ± 0.53%
MKGILVAGITAVLVAAVESLSCVQCNSWEKSCVNSIASECPSHANTSCISSSASSSLETPVRLYQNMFCSAENCSEETHITAFTVHVSAEEHFHFVSQCCQGKECSNTSDALDPPLKNVSSNAECPACYESNGTSCHGKPWKCYEEEQCVFLVAELKNDIESKSLVLKGCSNVSNATCQFLSGENKTLGGVIFRKFECANVNSLTPTSAPTTSHNVGSKASLYLLALASLLLRGLLP [Q6UX82]	26.8 ± 1.8	24 ± 2.7	4.63 ± 0.18	5.88 ± 0.78	
MSSWSRQRPKSPGGIQPHVSRTLFLLLLLAASAWGVTLSPKDCQVFRSDHGSSISCQPPAEIPGYLPADTVHLAVEFFNLTHLPANLLQGASKLQELHLSSNGLESLSPEFLRPVPQLRVLDLTRNALTGLPPGLFQASATLDTLVLKENQLEVLEVSWLHGLKALGHLDLSGNRLRKLPPGLLANFTLLRTLDLGENQLETLPPDLLRGPLQLERLHLEGNKLQVLGKDLLLPQPDLRYLFLNGNKLARVAAGAFQGLRQLDMLDLSNNSLASVPEGLWASLGQPNWDMRDGFDISGNPWICDQNLSDLYRWLQAQKDKMFSQNDTRCAGPEAVKGQTLLAVAKSQ					percentage of EdU-negative [1, 14]: 22.3 ± 2.4%; percentage of EdU-negative [1, 15]: 25.7 ± 1.4%; percentage of EdU-negative [2, 14]: 4.97 ± 0.88%; percentage of EdU-negative [2, 15]: 6.814 ± 0.037%
MKITGGLLLLCTVVYFCSSSEAASLSPKKVDCSIYKKYPVVAIPCPITYLPVCGSDYITYGNECHLCTESLKSNGRVQFLHDGSC	23.6 ± 1.3	24.5 ± 2.9	5.21 ± 1.1	6.62 ± 0.67	
